Assay results published in patent publication US20150125444A1 (AstraZeneca / MedImmune, published 2015).
Substitutions are numbered along the chain they refer to.

T1: Human FcγRIIa extracellular domain (human, UniProt P12318 34-217)
T1 construct: extracellular domain
T1 sequence (looked up): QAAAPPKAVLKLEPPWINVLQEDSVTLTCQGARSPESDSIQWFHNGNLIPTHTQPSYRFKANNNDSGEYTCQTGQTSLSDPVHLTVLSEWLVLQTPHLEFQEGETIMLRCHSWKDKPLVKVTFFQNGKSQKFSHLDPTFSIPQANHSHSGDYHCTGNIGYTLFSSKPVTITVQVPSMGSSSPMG

T2: Human FcγRIIb extracellular domain (human, UniProt P31994 43-217)
T2 construct: extracellular domain
T2 sequence (looked up): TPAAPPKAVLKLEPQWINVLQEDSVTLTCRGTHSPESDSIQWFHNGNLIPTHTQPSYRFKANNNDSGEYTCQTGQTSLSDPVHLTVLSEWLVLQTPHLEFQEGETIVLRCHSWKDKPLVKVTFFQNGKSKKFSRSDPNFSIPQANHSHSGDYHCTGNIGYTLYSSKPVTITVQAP

B1: Ab4 (anti-C5a antibody 1B8) with FES-YTE variant IgG1 Fc domain (antibody)
heavy: EVQLLESGGGLVQPGGSLRLSCAASGFTFSSYVMNWVRQAPGKGLEWVSSISPSGGRTWYADSVKGRFTISRDNSKNTLYLQMNSLRAEDTAVYYCARSDGSAAGFLGYWGQGTLVTVSSASTKGPSVFPLAPSSKSTSGGTAALGCLVKDYFPEPVTVSWNSGALTSGVHTFPAVLQSSGLYSLSSVVTVPSSSLGTQTYICNVNHKPSNTKVDKRVEPKSCDKTHTCPPCPAPEFEGGPSVFLFPPKPKDTLYITREPEVTCVVVDVSHEDPEVKFNWYVDGVEVHNAKTKPREEQYNSTYRVVSVLTVLHQDWLNGKEYKCKVSNKALPASIEKTISKAKGQPREPQVYTLPPSREEMTKNQVSLTCLVKGFYPSDIAVEWESNGQPENNYKTTPPVLDSDGSFFLYSKLTVDKSRWQQGNVFSCSVMHEALHNHYTQKSLSLSPGK
light: QSALTQPPSASGTPGQRVTISCSGTNSNIGSNYVFWYQQLPGTAPKLLIFESNRRPSGVPDRFSGSKSDTSASLAISGLRSEDEADYYCATWDDTLIAPVFGSGTKVTVLGQPKANPTVTLFPPSSEELQANKATLVCLISDFYPGAVTVAWKADSSPVKAGVETTTPSKQSNNKYAASSYLSLTPEQWKSHRSYSCQVTHEGSTVEKTVAPAEC
notes: Full IgG1; also called Ab4 FES-YTE
B2: Ab3 (anti-CD20 antibody HB20.3) with wild-type IgG1 Fc domain (antibody)
heavy: not shown
light: DIQMTQSPASLSASVGETVTITCRASGNIHNYLAWYQQKQGKSPQLLVYNAKTLADGVPSRFSGSGSGTQFSLKINSLQPEDFGSYYCQHFWSTPWTFGGGTKLEIKRTVAAPSVFIFPPSDEQLKSGTASVVCLLNNFYPREAKVQWKVDNALQSGNSQESVTEQDSKDSTYSLSSTLTLSKADYEKHKVYACEVTHQGLSSPVTKSFNRGEC
notes: Full human IgG1 kappa antibody; also called Ab3 WT; WT
B3: Ab3 (anti-CD20 antibody HB20.3) with YTE variant IgG1 Fc domain (antibody)
heavy: QVQLQQPGAELVKPGASVKMSCKASGFTFTNYNMHWLKQTPGQGLEWIGAIYPENGDTSYNQKFKGKATLTADKASSTAYMHLSSLTSEDSAVYFCARFYYYGSYYGAMDYWGQGTSVTVSSASTKGPSVFPLAPSSKSTSGGTAALGCLVKDYFPEPVTVSWNSGALTSGVHTFPAVLQSSGLYSLSSVVTVPSSSLGTQTYICNVNHKPSNTKVDKRVEPKSCDKTHTCPPCPAPELLGGPSVFLFPPKPKDTLYITREPEVTCVVVDVSHEDPEVKFNWYVDGVEVHNAKTKPREEQYNSTYRVVSVLTVLHQDWLNGKEYKCKVSNKALPAPIEKTISKAKGQPREPQVYTLPPSREEMTKNQVSLTCLVKGFYPSDIAVEWESNGQPENNYKTTPPVLDSDGSFFLYSKLTVDKSRWQQGNVFSCSVMHEALHNHYTQKSLSLSPGK
light: B2 light
notes: Full IgG1; also called Ab3 YTE
B4: Ab4 (anti-C5a antibody 1B8) with FAQ-YTE variant IgG1 Fc domain (antibody)
heavy: B1 heavy with E238A, K325Q, S334P
light: B1 light
notes: Full IgG1; also called Ab4 FAQ-YTE
B5: Ab3 (anti-CD20 antibody HB20.3) with FQG-YTE variant IgG1 Fc domain (antibody)
heavy: B3 heavy with L239F, L240Q, P336G
light: B2 light
notes: Full IgG1; also called Ab3 FQG-YTE; YTE-FQG
B6: Ab3 (anti-CD20 antibody HB20.3) with FAQ-YTE variant IgG1 Fc domain (antibody)
heavy: B3 heavy with L239F, L240A, K327Q
light: B2 light
notes: Full IgG1; also called Ab3 FAQ-YTE; YTE-FAQ
B7: Ab3 (anti-CD20 antibody HB20.3) with FQQ-YTE variant IgG1 Fc domain (antibody)
heavy: B3 heavy with L239F, L240Q, K327Q
light: B2 light
notes: Full IgG1; also called Ab3 FQQ-YTE; YTE-FQQ
B8: Ab4 (anti-C5a antibody 1B8) with FE-YTE variant IgG1 Fc domain (antibody)
heavy: B1 heavy with S334P
light: B1 light
notes: Full IgG1; also called Ab4 FE-YTE
B9: Ab3 (anti-CD20 antibody HB20.3) with FE-YTE variant IgG1 Fc domain (antibody)
heavy: B3 heavy with L239F, L240E
light: B2 light
notes: Full IgG1; also called Ab3 FE-YTE; YTE-FE

Molecular target: Human FcRn (extracellular domain) (human, UniProt P55899 24-297)
Assay: SPR (ProteOn XPR36), antibody immobilised, steady state, pH 6.0
Method: (§1) Experiments were performed using the ProteOn XPR36 surface plasmon resonance system (Bio Rad). Phosphate buffered saline with 0.005% Tween 20 (PBS/Tween), pH 7.4 was used as running buffer for most experiments with the exception of Human FcRn (extracellular domain) binding in which Phosphate buffered saline with 0.005% Tween 20 (PBS/Tween), pH 6.0 was used. All experiments were performed at 25° C. Antibodies were immobilized on a ProteOn™ GLC Sensor Chip (#176-5011) using EDAC (1-Ethyl-3-[3-dimethylaminopropyl]carbodiimide) and sulfo-NHS (N-hydroxysulfosuccinimide) to an R.U. (response unit) level of 4000-6000. C1q, FcγRI, FcγRIIa, FcγRIIb, FcγRIII(158V), FcγRIII(158F), and FcRn were then flowed over the IgG immobilized surface at various concentrations at a rate of 25 μl/minute for a long enough period of time to achieve steady state, or near steady state. Binding (if any could be determined) was quantified via steady state equilibrium binding analysis using the ProteOn software. Human FcγRI, FcγRIIa, FcγRIIb, FcγRIII(158V), FcγRIII(158F), and FcRn extracellular domains were generated via mammalian expression vectors in house. Human C1q was obtained from Quidel (CA).

Chain of Human FcRn (extracellular domain) (P55899 24-297): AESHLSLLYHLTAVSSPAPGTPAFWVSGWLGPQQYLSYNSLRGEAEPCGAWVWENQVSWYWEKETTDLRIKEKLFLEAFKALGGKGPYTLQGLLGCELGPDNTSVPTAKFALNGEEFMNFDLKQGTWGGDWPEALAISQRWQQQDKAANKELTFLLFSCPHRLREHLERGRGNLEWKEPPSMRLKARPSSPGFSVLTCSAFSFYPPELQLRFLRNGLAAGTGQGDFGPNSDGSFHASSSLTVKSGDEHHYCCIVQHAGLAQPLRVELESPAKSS

| Kd [nM] | Binder |
| --- | --- |
| 270 | B1 |
| 670 | B2 |
| 235 | B3 |

Molecular target: T3, Human FcγRIIIa (158V) extracellular domain (human, UniProt P08637 17-208)
T3 construct: extracellular domain; Position 158 is the usual allotype numbering (mature protein), not the precursor numbering of the database entry; also called FcγRIII(158V)
Assay: SPR (ProteOn XPR36), antibody immobilised, steady state, pH 7.4
Method: as §1

T3 sequence (P08637 17-208 F176V): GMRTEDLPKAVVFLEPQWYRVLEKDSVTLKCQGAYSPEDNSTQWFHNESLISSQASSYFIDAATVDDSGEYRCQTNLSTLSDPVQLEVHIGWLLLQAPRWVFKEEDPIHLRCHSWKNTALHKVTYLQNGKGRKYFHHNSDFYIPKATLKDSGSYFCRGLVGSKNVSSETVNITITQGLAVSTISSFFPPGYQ

| binding result | Kd [nM] | Binder |
| --- | --- | --- |
| no binding | – | B4 |
| – | 900 | B2 |
| no binding | – | B5 |
| no binding | – | B6 |
| no binding | – | B7 |
| – | 800 | B3 |

Molecular target: T4, Human FcγRIIIa (158F) extracellular domain (human, UniProt P08637 17-208)
T4 construct: extracellular domain; also called FcγRIII(158F)
Assay: as above
Method: as §1

T4 sequence (P08637 17-208): as the sequence (P08637 17-208 F176V) above, with V160F counted along it

| binding result | Kd [nM] | Binder |
| --- | --- | --- |
| no binding | – | B4 |
| – | 4700 | B2 |
| no binding | – | B5 |
| no binding | – | B6 |
| no binding | – | B7 |
| – | 6100 | B3 |

Molecular target: T5, Human C1q (human, UniProt P02745 23-245; P02746 28-253; P02747 29-245)
T5 construct: Bought complement protein; In the CDC assay C1q came with human serum
Assay: as above
Method: as §1

T5 sequence (P02745 23-245 limits assumed, chain 1 of 3): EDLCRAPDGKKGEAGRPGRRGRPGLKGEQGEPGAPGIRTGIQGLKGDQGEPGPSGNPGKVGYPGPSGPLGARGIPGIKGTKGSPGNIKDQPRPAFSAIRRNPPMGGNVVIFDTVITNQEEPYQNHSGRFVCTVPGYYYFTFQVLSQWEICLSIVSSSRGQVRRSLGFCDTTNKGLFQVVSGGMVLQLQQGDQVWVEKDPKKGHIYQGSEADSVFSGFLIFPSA
T5 sequence (P02746 28-253 limits assumed, chain 2 of 3): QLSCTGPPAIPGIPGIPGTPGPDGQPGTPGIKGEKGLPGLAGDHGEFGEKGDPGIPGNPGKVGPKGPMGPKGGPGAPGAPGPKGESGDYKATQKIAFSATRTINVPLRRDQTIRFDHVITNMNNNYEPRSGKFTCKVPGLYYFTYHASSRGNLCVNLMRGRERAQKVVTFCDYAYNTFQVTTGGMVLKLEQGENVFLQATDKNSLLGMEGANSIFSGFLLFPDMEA
T5 sequence (P02747 29-245 limits assumed, chain 3 of 3): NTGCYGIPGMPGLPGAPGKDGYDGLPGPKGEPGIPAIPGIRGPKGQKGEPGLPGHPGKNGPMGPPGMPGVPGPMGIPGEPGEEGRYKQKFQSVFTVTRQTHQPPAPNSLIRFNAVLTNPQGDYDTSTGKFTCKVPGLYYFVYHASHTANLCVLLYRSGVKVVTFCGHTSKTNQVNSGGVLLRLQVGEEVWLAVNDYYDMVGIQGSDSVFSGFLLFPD

| binding result | Kd [nM] | Binder |
| --- | --- | --- |
| no binding | – | B4 |
| binds | – | B8 |
| – | 103 | B2 |
| no binding | – | B5 |
| no binding | – | B6 |
| no binding | – | B7 |
| – | 360 | B9 |
| – | 70 | B3 |

Molecular target: T1, Human FcγRIIa extracellular domain
Assay: as above
Method: as §1

| binding result | Kd [nM] | Binder |
| --- | --- | --- |
| no binding | – | B4 |
| – | 1200 | B2 |
| no binding | – | B5 |
| no binding | – | B6 |
| no binding | – | B7 |
| – | 2800 | B3 |

Molecular target: T2, Human FcγRIIb extracellular domain
Assay: as above
Method: as §1

| binding result | Kd [nM] | Binder |
| --- | --- | --- |
| no binding | – | B4 |
| – | 6000 | B2 |
| no binding | – | B5 |
| no binding | – | B6 |
| no binding | – | B7 |
| – | 1600 | B3 |

Molecular target: T6, Human FcγRIa extracellular domain (human, UniProt P12314 16-292)
T6 construct: extracellular domain
Assay: as above
Method: as §1

T6 sequence (P12314 16-292): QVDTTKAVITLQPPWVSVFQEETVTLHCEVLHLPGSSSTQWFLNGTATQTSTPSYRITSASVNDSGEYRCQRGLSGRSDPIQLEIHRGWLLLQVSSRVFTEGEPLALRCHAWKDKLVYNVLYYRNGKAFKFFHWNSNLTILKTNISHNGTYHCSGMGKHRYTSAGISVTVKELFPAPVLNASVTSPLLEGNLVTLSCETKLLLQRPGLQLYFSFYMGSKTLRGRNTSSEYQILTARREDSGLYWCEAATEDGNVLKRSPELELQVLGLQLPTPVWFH

| binding result | Kd [nM] | Binder |
| --- | --- | --- |
| no binding | – | B4 |
| – | 78 | B2 |
| no binding | – | B5 |
| no binding | – | B6 |
| no binding | – | B7 |
| – | 140 | B3 |
